Measurements taken from article PMC3694778.
pKd: −log10 of the molar value.

Tests used:
[1] = test system: CLOCK bHLH-PAS-AB;BMAL1 bHLH-PAS-AB (mouse;mouse); experiment: fluorescence anisotropy competition; conditions: not given in the material (Supplementary Methods not held)
[2] = test system: CLOCK bHLH-PAS-AB;BMAL1 bHLH-PAS-AB (mouse;mouse); experiment: fluorescence anisotropy; conditions: not given in the material (Supplementary Methods not held)

Substance | pKd [1] | pKd [2]
mPer1 E1-box DNA 18-mer, unlabeled | 8.05 | –
mPer2 E2-box DNA 18-mer, unlabeled | 7.89 | –
mPer2 E2-box DNA, fluorescein labeled | – | 7.23
